Legend:
Details in all cases: protein: recombinant; tags: 6xHis; blunt
E2F1 [1] = target: T1, E2F1 (Homo sapiens? (cDNA amplified, Huh7.5.1 …, UniProt Q01094 1-437)); assay: EMSA; probe 10 nM; EMSA binding buffer (Beyotime GS005; composition and pH not given), room temperature, 30 min; 8% TBE agarose gel as stated, on ice, 80 V 1.5 h
E2F1 [2] = target: T1, E2F1; assay: EMSA; E2F1 50-400 nM, probe 10 nM; EMSA binding buffer (Beyotime GS005; composition and pH not given), room temperature, 30 min; 8% TBE agarose gel as stated, on ice, 80 V 1.5 h
E2F1 [3] = target: T1, E2F1; assay: competition; 10 uM unlabeled competitor vs 10 nM FAM-labeled N1; interaction abrogated; EMSA binding buffer (Beyotime GS005; composition and pH not given), room temperature, 30 min; 8% TBE agarose gel as stated, on ice, 80 V 1.5 h

T1 sequence (Q01094 whole entry): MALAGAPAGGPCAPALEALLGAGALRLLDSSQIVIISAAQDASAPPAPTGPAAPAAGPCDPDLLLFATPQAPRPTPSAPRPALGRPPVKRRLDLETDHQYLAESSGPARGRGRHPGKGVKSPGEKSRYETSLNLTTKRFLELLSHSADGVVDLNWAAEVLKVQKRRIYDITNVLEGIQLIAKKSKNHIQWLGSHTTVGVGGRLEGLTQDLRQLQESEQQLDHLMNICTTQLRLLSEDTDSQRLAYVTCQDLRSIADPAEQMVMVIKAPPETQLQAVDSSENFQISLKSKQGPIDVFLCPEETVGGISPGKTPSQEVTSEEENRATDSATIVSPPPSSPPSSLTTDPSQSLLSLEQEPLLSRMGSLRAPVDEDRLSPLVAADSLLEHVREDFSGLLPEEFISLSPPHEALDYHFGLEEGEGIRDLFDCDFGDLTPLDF

B1: NSUN2-Promoter-Mut-probe (dsDNA)
DNA 1: CTGACGATGGGATTCTTTGACCGCGCAGCCCA
DNA 2: TGGGCTGCGCGGTCAAAGAATCCCATCGTCAG
**Q.** Does B1 bind (E2F1 [1])?
**A.** no binding

B2: NSUN2-Promoter-probe (dsDNA)
DNA 1: CTGACGATTGCGCGCGAAGACCGCGCAGCCCA
DNA 2: TGGGCTGCGCGGTCTTCGCGCGCAATCGTCAG
**Q.** Does B2 bind (E2F1 [2])?
**A.** binds

B3: NSUN2-Promoter-probe, unlabeled competitor (dsDNA)
DNA 1: CTGACGATTGCGCGCGAAGACCGCGCAGCCCA
DNA 2: TGGGCTGCGCGGTCTTCGCGCGCAATCGTCAG
**Q.** Does B3 bind (E2F1 [3])?
**A.** binds
